Measured values as given in patent WO2022196697A1 (dated 2022).

Legend:
[1] = molecular target: T1, HER2 immunoprecipitated from the membrane fraction of cardiomyocytes (human, UniProt P04626 23-1255); assay: lectin blot of immunoprecipitated HER2 after electrophoresis (legend of Fig. 3)
T1 construct: also called cardiomyocyte-derived HER2; myocardial cell-derived HER2

[2] = molecular target: T2, HER2 immunoprecipitated from the membrane fraction of HER2-type breast cancer cells (HER2 solution) (human, UniProt P04626 23-1255, glycosylated; also tested after PNGase F treatment); assay: lectin array with immunoprecipitated HER2, with and without PNGase F; confirmed by Western and lectin blotting
T2 construct: Not fractionated by lectin; also called breast cancer cell-derived HER2; unfractionated HER2

binding result [1] | binding result [2] | Binder
binds | binds | AAL (Aleuria aurantia lectin) (other, UniProt P18891 2-313, looked up, also called AAL lectin) PTEFLYTSKIAAISWAATGGRQQRVYFQDLNGKIREAQRGGDNPWTGGSSQNVIGEAKLFSPLAAVTWKSAQGIQIRVYCVNKDNILSEFVYDGSKWITGQLGSVGVKVGSNSKLAALQWGGSESAPPNIRVYYQKSNGSGSSIHEYVWSGKWTAGASFGSTVPGTGIGATAIGPGRLRIYYQATDNKIREHCWDSNSWYVGGFSASASAGVSIAAISWGSTPNIRVYWQKGREELYEAAYGGSWNTPGQIKDASRPTPSLPDTFIAANSSGNIDISVFFQASGVSLQQWQWISGKGWSIGAVVPTGTPAGW
binds | binds | AOL (Aspergillus oryzae lectin) (other, UniProt Q2UNX8 1-311, looked up, also called biotinylated AOL) MSTPGAQEVLFRTGIAAVNSTNHLRVYFQDSHGSIRESLYESGWANGTAKNVIAKAKLGTPLAATSKELKNIRVYSLTEDNVLQEAAYDSGSGWYNGALAGAKFTVAPYSRIGSVFLAGTNALQLRIYAQKTDNTIQEYMWNGDGWKEGTNLGVALPGTGIGVTCWRYTDYDGPSIRVWFQTDNLKLVQRAYDPHTGWYKELTTIFDKAPPRCAIAATNFNPGKSSIYMRIYFVNSDNTIWQVCWDHGQGYHDKRTITPVIQGSEIAIISWEGPELRLYFQNGTYVSAISEWTWGKAHGSQLGRRALPPAE
